Measurements reported in article doi:10.1101/2025.10.21.683802.

Assays:
[1] = target: β2-adrenergic receptor, construct PN1 (monomeric) (UniProt P07550); test: BLI; as a14, with AP at 10 μM
[2] = target: β2-adrenergic receptor, construct PN1 (monomeric β2AR) (human) (UniProt P07550); test: BLI; as a1, monomeric β2AR with 10 µM AP; 10 µM Iso; apparent kon and koff; KD from equilibrium responses
[3] = target: AP-bound β2AR dimer (construct PN1 with AP-7-168) (UniProt P07550); test: SEC; AP-bound dimer with nucleotide-free Gs; peak fractions on SDS-PAGE, ratio of β2AR to Gα bands estimated on gels
[4] = target: β2-adrenergic receptor, construct PN1 (monomeric) (UniProt P07550); test: BLI; FLAG-tagged β2AR held through biotinylated anti-FLAG M1 Fab on SA tips with 10 μM Iso; Gs 30 nM to 10 μM with 10 μM GDP and 0.1% BSA; NH buffer, 0.01% LMNG, 0.001% CHS; 30°C; KD from equilibrium responses

- Kd [1]: 1.7 µM
- Kd [2]: 1.71 µM
- stoichiometry N [3]: 2 β2AR per Gα
- Kd [4]: 0.96 µM
Substance: heterotrimeric Gs (Gαsβ1γ2) (from UniProt P63092 1-394; P62873 1-340; P59768 1-71) (complex)
